Columns and labels:
Assay type in all cases: cell-based
gene editing with Cas9 = assay: Screen of 322 new SSAP proteins, gene editing activity with Cas9 (Table 5); parameters: Cas9 with SSAP activity: scale not given here
Procedure, shortened: (§1)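 Sequence-mined SSAPs (n=322), synthesized; editing activity screened with Cas9 or dCas9.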

gene editing with dCas9 = assay: Screen of 322 new SSAP proteins, gene editing activity with dCas9 (Table 5); parameters: dCas9 with SSAP activity: scale not given here
Procedure, shortened: as §1

[1] = test system: gene editing with Cas9 and dCas9; assay: Screen of 322 new SSAP proteins, activity across all experiments (Cas9 and dCas9, Table 5); parameters: scale not given here
Procedure, shortened: as §1

B1: SSAP_308: SEQ ID NO: 477; uncultured organism (protein)
chain: SNELQNIKPEVFGEVEDKLGSLADNNGIDLPENYSARNALKQAYLKLQSKDEPVFDKYKDETIYNALLDTLTQGLNPGKDQVYYIGYGNHLTAQKSYFGNIALAKRMAGVQEVSSNVILEGDEVDISIERGQQVIESHDRNFDSMDGQVKGAYAVISFEDERKDKYEIMTLKELKQAWAQGKSFGGNGKSPHHKFTKEMAKKTVINRALKPLIKASDDSGLIKEKPKLEKLKDGQQERTEGEKIEEVDVDKEEVVEVDYDV
modifications: uncultured organism
For B1, the “Cas9 with SSAP activity” value (gene editing with Cas9) was −0.693, the “Cas9 with SSAP activity (normalized)” value (gene editing with Cas9) was −1.286 and the “dCas9 with SSAP activity” value (gene editing with dCas9) was −1.277. The “dCas9 with SSAP activity (normalized)” value (gene editing with dCas9) was −1.011 and the “Activity across all experiments” value [1] was −0.985.

B2: SSAP_19: SEQ ID NO: 188 (protein)
chain: NTPTMKRKFEEVLHENANAFMSNVMTLVSNDSYLAESEPMSILSGALTAATLNLGLDKNLGYAYLVPFNTKNKQTGKWERKAQFILGYKGYIQLAQRSGKYKALNVIEVYEGELLSWNRLTEEFEFDPNGRQSDDVIGYVGYFELLNGFKKTVYWTKQEIEAHRIANSKDKEKTKLSGVWATDYNAMARKTVLRNMLSKWGILSIEMQEATTSDEKVQQMQEDGNIISETEVEENTTMKTAEVINEADSDSLNQTDLFDTKNPPLE
With B2 the “Cas9 with SSAP activity” value (gene editing with Cas9) was −0.298, the “Cas9 with SSAP activity (normalized)” value (gene editing with Cas9) was −0.329 and the “dCas9 with SSAP activity” value (gene editing with dCas9) was −1.396. For the same molecule, the “dCas9 with SSAP activity (normalized)” value (gene editing with dCas9) was −0.389 and the “Activity across all experiments” value [1] was −0.847.

B3: SSAP_111: SEQ ID NO: 280; Siminovitchia fordii (protein, listed as Siminovitchia fordii)
chain: ATNQDIKNQLANKANGNKPASPANTIAAYLKKMGPEIEKALPKHMDADRLARIALTTIRTTPKLLECNISSLMGAVMQSAQLGLEPGLIGHCYIIPYGKEATFIIGYKGMIDLARRSGQIQNIYAHAVFENDEFDYALGLHPKLEHKPAGSNRGEIIGAYAVAHFKDGGYQFEYMAKEDIEKRKSRSAAARSKHSPWATDYEEMAKKTVIRHMWKYLPISVEIQQQAIQDEVVRKDVTSEPEFIDMEDMPEVEEGQSEESEQVEAPFD
B3 was tested, and the “Cas9 with SSAP activity” value (gene editing with Cas9) was 0.173, the “Cas9 with SSAP activity (normalized)” value (gene editing with Cas9) was 0.129 and the “dCas9 with SSAP activity” value (gene editing with dCas9) was −1.417. For the same molecule, the “dCas9 with SSAP activity (normalized)” value (gene editing with dCas9) was −0.419 and the “Activity across all experiments” value [1] was −0.622.

B4: SSAP_117: SEQ ID NO: 286; Enterocloster bolteae (protein, listed as Enterocloster bolteae)
chain: GVNVKHELEQRAAGQGASVRLTKNMTIVDMVKALEPEIRRALPAVLTPERFTRMALSSINNTPELAECTPMSFIAALLNAAQLGLEPNTPLGQAYLIPYKNKGKLECQFQLGYKGLIDLAYRTGQVQIIQAQVVREFDSFEYQYGLDSKLVHKPGEGARGEITYVYGLFKLSNGGYGFEVSNKTEMDTFAARYSKSFGSKYSPWTEDYESMAKKTVIKRVLKYAPISSDFQKALSMDETIKTGIAVDMSEIRNECLPEEAGSEAA
B4 was tested, and the “Cas9 with SSAP activity” value (gene editing with Cas9) was −4.474, the “Cas9 with SSAP activity (normalized)” value (gene editing with Cas9) was −1.192 and the “dCas9 with SSAP activity” value (gene editing with dCas9) was −1.263. For the same molecule, the “dCas9 with SSAP activity (normalized)” value (gene editing with dCas9) was −0.179 and the “Activity across all experiments” value [1] was −2.868.

B5: SSAP_119: SEQ ID NO: 288; Bacillus albus (protein, listed as Bacillus albus)
chain: ATNEKLKNQLANRKESAPATPEQTVEAYMKKMAPKMAEVLPKHMDMGRMSRMALTTMRTSPKLLNCTVSSLMGAVMQAVQLGLEPGLLGHCYILPYKGEATFIIGYKGMIDLARRSGHIQSIYAHAVHENDEFDYELGLHPKLEHKPVHGDRGAFVGAYAVAHFKDGGYQMEFMPKSEIEKRRKRSASANSSFSPWKSDYEEMAKKTVIRYIFKYLPISIEVQLLAAQDEVVRKDITEEPEFIEADPIDVEQPTTEGDGQQEFSIEE
For B5, the “Cas9 with SSAP activity” value (gene editing with Cas9) was −0.911, the “Cas9 with SSAP activity (normalized)” value (gene editing with Cas9) was −3.635 and the “dCas9 with SSAP activity” value (gene editing with dCas9) was −1.189. For the same molecule, the “dCas9 with SSAP activity (normalized)” value (gene editing with dCas9) was −0.361 and the “Activity across all experiments” value [1] was −1.050.

B6: SSAP_153: SEQ ID NO: 322; Staphylococcus intermedius (protein, listed as Staphylococcus intermedius)
chain: ANANSFKEQVSKNEVQETNNEKPKGPRQQVSDLLERMAPEIQKALPSHMSAERMARIAMTAISSNPQLLECNPRSLIGALLQASQIGLEPNTALGQAYLIPYYNHKKKEFEAQLQLSYLGLIELATRTGQYKAIYAHEVYKEDEFYYEYGLHKNLVHKPVDDPNGEPVGYYAVYHLQNGGFDFAYWTKNKIELHAGNYSKAVQKGWNSPWKTDFNAMAKKTVLKDLLKYAPKSIEISQAVGSDSKVTEINKQGEIIDITEYGQEALEG
In the case of B6, the “Cas9 with SSAP activity” value (gene editing with Cas9) is reported as −2.201, the “Cas9 with SSAP activity (normalized)” value (gene editing with Cas9) is reported as −0.296 and the “dCas9 with SSAP activity” value (gene editing with dCas9) is reported as −1.534. The “dCas9 with SSAP activity (normalized)” value (gene editing with dCas9) was −0.179 and the “Activity across all experiments” value [1] was −1.867.

B7: SSAP_92: SEQ ID NO: 261; Edwardsiella piscicida (protein, listed as Edwardsiella piscicida)
chain: TNNQQPPIATADLQKAQSQAPAVKPDQKLINFINQPSMKGQIAAALPRHMAPDRMIRIITTEIRKTPALATCDMQSFIGSVVQCSQLGLEPGGALGHAYLLPFGNGKAKSGQSNVQLIIGYRGMIDLARRSGQIVSISARTVRDGDQFHYEYGLDETLKHVPGDNESSPITHVYAVAKLKDGGVQFEVMTFNQIEKVRGQSKAGNNGPWQTHWEEMAKKTVIRRLFKYLPVSIEMQKAVILDEKAEANIDQENASVISAEFSVVED
In the case of B7, the “Cas9 with SSAP activity” value (gene editing with Cas9) is reported as 2.341, the “Cas9 with SSAP activity (normalized)” value (gene editing with Cas9) is reported as 2.795 and the “dCas9 with SSAP activity” value (gene editing with dCas9) is reported as −1.516. The “dCas9 with SSAP activity (normalized)” value (gene editing with dCas9) was −0.177 and the “Activity across all experiments” value [1] was 0.412.

B8: SSAP_141: SEQ ID NO: 310; Hungatella hathewayi (protein, listed as Hungatella hathewayi)
chain: RRDRNVTAVKQELEKKAAGTSQAVKLTKNMTIVDMVKALEPEIKRALPSILTPERFTRMALSAINNTPKLAECTPMSFIAALMNAAQLGLEPNTPLGQAYLIPYKNKGVLECQFQLGYRGMIDLAYRNERMQSIEAQTVYEHDEFFYELGLHPALVHRPTFEDRGEIRAFYAIFRLDNGGYRFEVMSKSYVDAYAMRYSKAFTSEFSPWKSNYEGMAKKTVIKQLLKYAPVKSEFQKAITLDETVKTELSVDMSEVQNEDLSETLTAESAA
B8 was tested, and the “Cas9 with SSAP activity” value (gene editing with Cas9) was −2.047, the “Cas9 with SSAP activity (normalized)” value (gene editing with Cas9) was −0.694 and the “dCas9 with SSAP activity” value (gene editing with dCas9) was −1.179. The “dCas9 with SSAP activity (normalized)” value (gene editing with dCas9) was −0.244 and the “Activity across all experiments” value [1] was −1.613.

B9: SSAP_159: SEQ ID NO: 328; Clostridium hathewayi CAG: 224 (protein, listed as Clostridium hathewayi)
chain: ANDIRGELARRASGTETQAVKLTKNMSIPDMIKALEPEIKRALPTILTPERFTRIALSAINNTPKLAECSPMSFIAALMNAAQLGLEPNTPLGQAFLIPYKVKGSLECQFQIGYRGMIDLAYRNERVQSIEAHTVYENDVFEYELGLNPRLVHIPTMEEPGDPIAFYGIFRLDNGGFRFEVMNKNAIDAYAARYSKAYDSASSPWKNNYESMACKTVLKQLLKYSPMKSEFQKAVSMDESVKTELSVDMSEVQNVNLIEETQEDAA
B9 was tested, and the “Cas9 with SSAP activity” value (gene editing with Cas9) was 1.622, the “Cas9 with SSAP activity (normalized)” value (gene editing with Cas9) was 2.756 and the “dCas9 with SSAP activity” value (gene editing with dCas9) was −1.156. For the same molecule, the “dCas9 with SSAP activity (normalized)” value (gene editing with dCas9) was −0.358 and the “Activity across all experiments” value [1] was 0.233.

B10: SSAP_151: SEQ ID NO: 320; Mammaliicoccus (protein, listed as Mammaliicoccus sp.)
chain: ATNESIKNQVASRKKNEVQNKSPKTQLNDLLIKMGPEIQRALPKHMDADRMARIAMTAVSTTPKLLECDQMSFIGALMQASQLGVEPNTGLGQAYLIPYGGKVQFQLSYKGLIDLATRSGQYKAIYAHEVFPNDEFNYQYGLFKNLEHIPSQEPEGEPIGYYAVYHLKNGGYDFVYWTRERVDKHAKDFSQAVQKGWTSPWKTNYDAMAKKTVLKEVLKYAPKSIEMNKAVNSDSTIKDEINEDMSSVIDITDYEEVNDQQEEKKEESK
With B10 the “Cas9 with SSAP activity” value (gene editing with Cas9) was −4.713, the “Cas9 with SSAP activity (normalized)” value (gene editing with Cas9) was −0.683 and the “dCas9 with SSAP activity” value (gene editing with dCas9) was −1.257. For the same molecule, the “dCas9 with SSAP activity (normalized)” value (gene editing with dCas9) was −0.422 and the “Activity across all experiments” value [1] was −2.985.

B11: SSAP_268: SEQ ID NO: 437; Oceanobacillus sp. E9 (protein, listed as Oceanobacillus sp.)
chain: ATNDSLKNQLSSKQGNQNTPSGYTIKQLMGAESVKKRFEEMLDSKASQFMASVINLVNGDTNLQKCDQMSVVSSAMVAATLDLPIDRNLGYAWVIPYGNQATFQLGYKGYIQLALRSGQYRNINVIEVYEGELQSFNRLTEEIELDFEKRTSDKVIGYTGFFELINGFRKTVYWSKAEIEKHKNKFSKSGFGWKNDWDAMAKKTVVRNMLNKWGILSIDMQKAYVEETKDPSEPNGEVIDLNLTEDELTAAQEQFSDENANE
With B11 the “Cas9 with SSAP activity” value (gene editing with Cas9) was −0.160, the “Cas9 with SSAP activity (normalized)” value (gene editing with Cas9) was −0.383 and the “dCas9 with SSAP activity” value (gene editing with dCas9) was −1.151. For the same molecule, the “dCas9 with SSAP activity (normalized)” value (gene editing with dCas9) was −0.400 and the “Activity across all experiments” value [1] was −0.656.

B12: SSAP_59: SEQ ID NO: 228 (protein)
chain: SEIQQQAEAQTQAHPTAVLDDYRGAIASVAPPGTNIDLFIRMTKSNVNRSDEIVAAVKRNPGLFMQAVMDSAALGHIPGSEYYYLTPRRDGISGIESWKGVAKRIFNTGRYQRIVCEVVYEGEQWEFQPGEDLKPKHVIDWDARQVGSKVRFTYAYAVDFEGNPSTVAVCTKLDLDKAQKQSRGKVWDQWYEQMAKKTAIKRLEDFVDTSAVDLRADGSSRRHSAEVAE
B12 was tested, and the “Cas9 with SSAP activity” value (gene editing with Cas9) was 0.218, the “Cas9 with SSAP activity (normalized)” value (gene editing with Cas9) was 0.538 and the “dCas9 with SSAP activity” value (gene editing with dCas9) was −1.201. For the same molecule, the “dCas9 with SSAP activity (normalized)” value (gene editing with dCas9) was −0.336 and the “Activity across all experiments” value [1] was −0.491.

B13: SSAP_122: SEQ ID NO: 291; Clostridium transplantifaecale (protein)
chain: TDVKEELARKAGNTGKQEIRLNKNMSIPDMVKVLEPEIKRALPSVLTPERFTRMALSAINNTPKLAECSPMSFIAALMNAAQLGLEPNTPLGQAYLIPYKNKNQLECQFQIGYKGYIDLAYRTGQVQMIQAQAVHEFDYFEYEYGLTPKLVHRPGEGERGEITYFYGLFKMINGGFGFEVMNRAAMDAFAKQYSQSINSKYSPWNSQYEEMAKKTIIKKALKYGPVKSDFQKAISMDESIKTELSIDMSEVRNEDLIDGEFEEAA
modifications: Clostridium transplantifaecale
With B13 the “Cas9 with SSAP activity” value (gene editing with Cas9) was 1.429, the “Cas9 with SSAP activity (normalized)” value (gene editing with Cas9) was 0.558 and the “dCas9 with SSAP activity” value (gene editing with dCas9) was −1.142. For the same molecule, the “dCas9 with SSAP activity (normalized)” value (gene editing with dCas9) was −0.148 and the “Activity across all experiments” value [1] was 0.144.
